# Test system: CyPPO13
# Assay: PPO enzyme activity and IC50 by herbicides, CyPPO13 wild type and variants (MBP-PPO fusion)
# Assay type: biochemical, Synechococcus sp. JA-3-3Ab
# Details: PPO enzyme activity of CyPPO13 protein, wild type = 100
# Method: The enzyme activities of PPO protein and PPO protein variants were examined, and inhibition assay by PPO-inhibiting herbicides was conducted. It was confirmed that the PPO protein has low water-solubility, but in case of being expressed as a fusion protein with MBP (maltose binding protein) (MBP-PPO), the PPO protein is able to be stably expressed as water-soluble form. Therefore, the wild type and variant proteins which were expressed in the form of fusion protein with MBP were used in the present test (refer to FIG. 4).
# In order to express wild type genes and mutant genes of CyPPO10 and CyPPO13 (refer to Example 1 and Example 4), those genes were introduced to pMAL-c2X vector (refer to FIG. 5) respectively, and then cloned to BL21 (DE3) E. coli (CodonPlus).
# The enzyme activity of the purified wild type protein and variant proteins of CyPPO10 and CyPPO13 was measured by the following process.
# At first, a substrate of PPO protein, Protoporphyrinogen IX was synthesized. This process was performed in the space where nitrogen gas is streamed. 6 mg of protoporphyrin IX was dissolved in 20% (v/v) EtOH 20 ml, and stirred under dark condition for 30 minutes. The obtained protoporphyrinogen IX solution was put into a 15 ml screw tube in an amount of 800 and flushed with nitrogen gas for 5 minutes. To this, 1 g of sodium amalgam was added and vigorous shaking was performed for 2 minutes. The lid was open to exhaust hydrogen gas in the tube. Thereafter, the lid was closed and incubated for 3 minutes. The […] was filtered using syringe and cellulose membrane filter. To 600 μl of the obtained […], 2M MOPS [3-(N-morpholino)propanesulfonic acid] was added in an amount of approximately 300 thereby adjusting pH to 8.0. To determine the enzyme activity of PPO protein, a reaction mixture was prepared with the following composition (based on 10 ml): 50 mM Tris-Cl (pH 8.0); 50 mM NaCl; 0.04% (v/v) Tween 20; 40 mM glucose (0.072 g); 5 units glucose oxidase (16.6 mg); and 10 units catalase (1 μl).
# Two hundred microliters (200 μl) of reaction mixture containing a purified PPO protein were placed in 96 well plates, and preincubated for 30 min at room temperature to reduce the oxygen concentration by the reaction of glucose oxidase-catalase. The mineral oil was layered and then the reaction was initiated by adding the substrate, […], to a final concentration of 50 μM. The reaction proceeded at room temperature for 30 min and the fluorescence of protoporphyrin IX was measured using Microplate reader (Sense, Hidex) (excitation: 405 nm; emission: 633 nm). To calculate the PPO enzyme activity, protoporphyrinogen IX solution was kept open in the air to oxidize the solution (overnight). To this, 2.7N HCl was added, and the absorbance at 408 nm was measured. A standard curve was generated using standard protoporphyrin IX, and the PPO activity was measured by calibration of protoporphyrin IX using the standard curve of protoporphyrin IX.
# The final concentration of each herbicide was as follows: […]
row,Molecule,Activity (%)
1,"CyPPO13 F373N: CyPPO13 (SEQ ID NO: 4) PPO variant (protein, Synthetic CyPPO13) MNPATPEPLNAEVVVIGAGISGLTLAWRLQQGLSARGGSPQAVLLAEASSRVGGCISTQSKDGYRWEEGPNSFTPTPALLNLIAEVGLTDQLVLADAKLPRYIYWEGALLPVPLSPAAALGSRLLSVGGKLRALQGLLGFVPPPPGHEETVRQFFRRQLGSEVAERLVEPFTSGVYAGDPDQLSAVAAFPRVAGLEERYGSLFAGALQALRQRPQPSPAAIQPPPKRGQLGNLRQGLQQLPEALAQKLGDSLRLGWRALQLKRAGELYWVGFETPEGSRWVAARQVVLALPAYEAAALLQELNPPASQLLAEILYPPVAVVALAYPQEALPQPLRGFGHLIPRSQGLRTLGTIWASCLFPERAPQGYHSFLSNLGGATDAALARRRGIPPIPALSPEERAQIAHAELSQVLLTRRAEPVYLGERLWPRAIPQYTLGHRQRIAQVQAHLASQTPGIWVCANYLDGVALGDCVRRAEALAQQLLSQV",40
2,"CyPPO13 A177L + F373M: CyPPO13 (SEQ ID NO: 4) PPO variant (protein, Synthetic CyPPO13) MNPATPEPLNAEVVVIGAGISGLTLAWRLQQGLSARGGSPQAVLLAEASSRVGGCISTQSKDGYRWEEGPNSFTPTPALLNLIAEVGLTDQLVLADAKLPRYIYWEGALLPVPLSPAAALGSRLLSVGGKLRALQGLLGFVPPPPGHEETVRQFFRRQLGSEVAERLVEPFTSGVYLGDPDQLSAVAAFPRVAGLEERYGSLFAGALQALRQRPQPSPAAIQPPPKRGQLGNLRQGLQQLPEALAQKLGDSLRLGWRALQLKRAGELYWVGFETPEGSRWVAARQVVLALPAYEAAALLQELNPPASQLLAEILYPPVAVVALAYPQEALPQPLRGFGHLIPRSQGLRTLGTIWASCLFPERAPQGYHSFLSMLGGATDAALARRRGIPPIPALSPEERAQIAHAELSQVLLTRRAEPVYLGERLWPRAIPQYTLGHRQRIAQVQAHLASQTPGIWVCANYLDGVALGDCVRRAEALAQQLLSQV",75
3,"CyPPO13 R101A + F373M: CyPPO13 (SEQ ID NO: 4) PPO variant (protein, Synthetic CyPPO13) MNPATPEPLNAEVVVIGAGISGLTLAWRLQQGLSARGGSPQAVLLAEASSRVGGCISTQSKDGYRWEEGPNSFTPTPALLNLIAEVGLTDQLVLADAKLPAYIYWEGALLPVPLSPAAALGSRLLSVGGKLRALQGLLGFVPPPPGHEETVRQFFRRQLGSEVAERLVEPFTSGVYAGDPDQLSAVAAFPRVAGLEERYGSLFAGALQALRQRPQPSPAAIQPPPKRGQLGNLRQGLQQLPEALAQKLGDSLRLGWRALQLKRAGELYWVGFETPEGSRWVAARQVVLALPAYEAAALLQELNPPASQLLAEILYPPVAVVALAYPQEALPQPLRGFGHLIPRSQGLRTLGTIWASCLFPERAPQGYHSFLSMLGGATDAALARRRGIPPIPALSPEERAQIAHAELSQVLLTRRAEPVYLGERLWPRAIPQYTLGHRQRIAQVQAHLASQTPGIWVCANYLDGVALGDCVRRAEALAQQLLSQV",55
4,"CyPPO13 V318M + F373M: CyPPO13 (SEQ ID NO: 4) PPO variant (protein, Synthetic CyPPO13) MNPATPEPLNAEVVVIGAGISGLTLAWRLQQGLSARGGSPQAVLLAEASSRVGGCISTQSKDGYRWEEGPNSFTPTPALLNLIAEVGLTDQLVLADAKLPRYIYWEGALLPVPLSPAAALGSRLLSVGGKLRALQGLLGFVPPPPGHEETVRQFFRRQLGSEVAERLVEPFTSGVYAGDPDQLSAVAAFPRVAGLEERYGSLFAGALQALRQRPQPSPAAIQPPPKRGQLGNLRQGLQQLPEALAQKLGDSLRLGWRALQLKRAGELYWVGFETPEGSRWVAARQVVLALPAYEAAALLQELNPPASQLLAEILYPPMAVVALAYPQEALPQPLRGFGHLIPRSQGLRTLGTIWASCLFPERAPQGYHSFLSMLGGATDAALARRRGIPPIPALSPEERAQIAHAELSQVLLTRRAEPVYLGERLWPRAIPQYTLGHRQRIAQVQAHLASQTPGIWVCANYLDGVALGDCVRRAEALAQQLLSQV",72
5,"CyPPO13 A177I + F373M: CyPPO13 (SEQ ID NO: 4) PPO variant (protein, Synthetic CyPPO13) MNPATPEPLNAEVVVIGAGISGLTLAWRLQQGLSARGGSPQAVLLAEASSRVGGCISTQSKDGYRWEEGPNSFTPTPALLNLIAEVGLTDQLVLADAKLPRYIYWEGALLPVPLSPAAALGSRLLSVGGKLRALQGLLGFVPPPPGHEETVRQFFRRQLGSEVAERLVEPFTSGVYIGDPDQLSAVAAFPRVAGLEERYGSLFAGALQALRQRPQPSPAAIQPPPKRGQLGNLRQGLQQLPEALAQKLGDSLRLGWRALQLKRAGELYWVGFETPEGSRWVAARQVVLALPAYEAAALLQELNPPASQLLAEILYPPVAVVALAYPQEALPQPLRGFGHLIPRSQGLRTLGTIWASCLFPERAPQGYHSFLSMLGGATDAALARRRGIPPIPALSPEERAQIAHAELSQVLLTRRAEPVYLGERLWPRAIPQYTLGHRQRIAQVQAHLASQTPGIWVCANYLDGVALGDCVRRAEALAQQLLSQV",75
6,"CyPPO13 A177C + F373M: CyPPO13 (SEQ ID NO: 4) PPO variant (protein, Synthetic CyPPO13) MNPATPEPLNAEVVVIGAGISGLTLAWRLQQGLSARGGSPQAVLLAEASSRVGGCISTQSKDGYRWEEGPNSFTPTPALLNLIAEVGLTDQLVLADAKLPRYIYWEGALLPVPLSPAAALGSRLLSVGGKLRALQGLLGFVPPPPGHEETVRQFFRRQLGSEVAERLVEPFTSGVYCGDPDQLSAVAAFPRVAGLEERYGSLFAGALQALRQRPQPSPAAIQPPPKRGQLGNLRQGLQQLPEALAQKLGDSLRLGWRALQLKRAGELYWVGFETPEGSRWVAARQVVLALPAYEAAALLQELNPPASQLLAEILYPPVAVVALAYPQEALPQPLRGFGHLIPRSQGLRTLGTIWASCLFPERAPQGYHSFLSMLGGATDAALARRRGIPPIPALSPEERAQIAHAELSQVLLTRRAEPVYLGERLWPRAIPQYTLGHRQRIAQVQAHLASQTPGIWVCANYLDGVALGDCVRRAEALAQQLLSQV",77
7,"CyPPO13 V175L + F373M: CyPPO13 (SEQ ID NO: 4) PPO variant (protein, Synthetic CyPPO13) MNPATPEPLNAEVVVIGAGISGLTLAWRLQQGLSARGGSPQAVLLAEASSRVGGCISTQSKDGYRWEEGPNSFTPTPALLNLIAEVGLTDQLVLADAKLPRYIYWEGALLPVPLSPAAALGSRLLSVGGKLRALQGLLGFVPPPPGHEETVRQFFRRQLGSEVAERLVEPFTSGLYAGDPDQLSAVAAFPRVAGLEERYGSLFAGALQALRQRPQPSPAAIQPPPKRGQLGNLRQGLQQLPEALAQKLGDSLRLGWRALQLKRAGELYWVGFETPEGSRWVAARQVVLALPAYEAAALLQELNPPASQLLAEILYPPVAVVALAYPQEALPQPLRGFGHLIPRSQGLRTLGTIWASCLFPERAPQGYHSFLSMLGGATDAALARRRGIPPIPALSPEERAQIAHAELSQVLLTRRAEPVYLGERLWPRAIPQYTLGHRQRIAQVQAHLASQTPGIWVCANYLDGVALGDCVRRAEALAQQLLSQV",93
8,"CyPPO13 A177L + F373T: CyPPO13 (SEQ ID NO: 4) PPO variant (protein, Synthetic CyPPO13) MNPATPEPLNAEVVVIGAGISGLTLAWRLQQGLSARGGSPQAVLLAEASSRVGGCISTQSKDGYRWEEGPNSFTPTPALLNLIAEVGLTDQLVLADAKLPRYIYWEGALLPVPLSPAAALGSRLLSVGGKLRALQGLLGFVPPPPGHEETVRQFFRRQLGSEVAERLVEPFTSGVYLGDPDQLSAVAAFPRVAGLEERYGSLFAGALQALRQRPQPSPAAIQPPPKRGQLGNLRQGLQQLPEALAQKLGDSLRLGWRALQLKRAGELYWVGFETPEGSRWVAARQVVLALPAYEAAALLQELNPPASQLLAEILYPPVAVVALAYPQEALPQPLRGFGHLIPRSQGLRTLGTIWASCLFPERAPQGYHSFLSTLGGATDAALARRRGIPPIPALSPEERAQIAHAELSQVLLTRRAEPVYLGERLWPRAIPQYTLGHRQRIAQVQAHLASQTPGIWVCANYLDGVALGDCVRRAEALAQQLLSQV",62

# — patent US11466286B2, “Methods and compositions for conferring and/or enhancing herbicide tolerance using protoporphyrinogen oxidase or variant thereof” (FarmHannong Co., Ltd., priority 2016, dated 2022)
